Results taken from patent publication US8895062B2, “Surface-layer protein coated microspheres and uses thereof” (University of Maryland, Baltimore, priority 2006, dated 2014).
Where “and” joins values, the source holds several entries; their conditions need not be identical. Equal entries are not always repeated.

What was measured:
[1] = tested on: Caco-2 intestinal epithelial cells; assay: IL-8 secretion by Caco-2 cells (Luminex-100); assay type: cell-based, human; details: 18 hours
Protocol: TNFα (100 ng/ml; dark grey bar) served as a positive control. Following incubation for 18 hours, culture supernatants were analyzed for IL-8 using the Luminex-100 system in duplicate. Data represent mean and standard deviation of three individual experiments.
No peptides (c) and TNFα alone (dark grey bar) served as controls. Following incubation for 18 hours, culture supernatants were analyzed for IL-8 using the Luminex-100 system in duplicate. Data represent mean and standard deviation of three individual experiments.
Subconfluent monolayers of Caco-2 cells were maintained in RPMI 1640 medium (Gibco), supplemented with 10% FBS (Valley Biomedical, Winchester, Va.), 2 mM L-glutamine (Quality Biological, Gaithersburg, Md.), 20 mM HEPES, 1× nonessential amino acids, 1 mM sodium pyruvate and 5% Penicillin/Streptomycin (Sigma) in a humidified incubator at 37° C. with 5% CO2. Caco-2 cells were used between passages 35-42. Caco-2 cells were plated at a density of 4×10^4 cells/cm^2 in a 96-well plate 48 hours before use. The cells were gently washed twice with serum-free medium and incubated for a further 18 hours in serum-free medium containing the peptides at a final concentration of 50 or 100 ug/ml. Human recombinant tumor necrosis factor alpha (Sigma; 100 ng/ml) was included during incubation with the peptides (100 ug/ml) as indicated. The culture supernatant was collected for measurement of IL-8 using the Luminex-100 system (Bio-rad Laboratories).

E. coli ATCC 25922 = assay: Antibacterial activity, 96-well turbidimetric assay, E. coli; assay type: cell-based, Escherichia coli
Protocol: (§1) Strains were exposed to the peptides at concentrations varying twofold from 0.12 to 125 μg/ml. (B) Strains were exposed to fixed peptide concentrations (100 ug/ml for E. coli; 50 ug/ml for S. aureus) in the absence or presence of the indicated concentrations of sodium chloride. Each curve is the mean of three separate experiments. Points scored as zero survival could not be plotted.
(§2) The antibacterial activity of HD-5 and HD-5Abu against E. coli ATCC 25922 and S. aureus ATCC 29213 was carried out in a 96-well turbidimetric assay as described previously.

S. aureus ATCC 29213 = assay: Antibacterial activity, 96-well turbidimetric assay, S. aureus; assay type: cell-based, Staphylococcus aureus
Protocol: as §1, §2

[2] = target: Fibronectin (human plasma); assay: Surface plasmon resonance (BIAcore 3000), immobilized SlpA binding to fibronectin
Protocol: (§3) The interaction between SlpA and extracellular matrix components was evaluated by surface plasmon resonance on a BIAcore 3000 instrument. Purified SlpA protein in 5M LiCl was dialyzed against double-distilled water overnight. Monomeric and/or oligomeric protein was separated from self-assembled material by centrifugation at 20,000×g for 20 min. SlpA protein (50 ug/ml in 10 mM Sodium Phosphate pH 7.4) was covalently coupled to CM5 carboxylated dextran chips using N-hydroxysuccinimide (NHS) chemistry. Uncoupled NHS-ester groups were blocked with 1M Ethanolamine, resulting in the coupling of about 1700 resonance units (RU's) to the chip. Kinetic analysis was carried out at 25° C. in 10 mM HEPES, 150 mM NaCl, 3 mM EDTA, 0.005% surfactant P20, pH 7.4. Fibronectin, laminin, fibrinogen and collagen were treated according to manufacturer's instructions and injected at indicated concentrations at a flow rate of 20 ul/min over each flow cell. Binding was determined experimentally by comparing the number of RU's observed as a function of time to an activated and blocked flow cell containing no linked protein. Non-specific binding to the control flow cell appeared insignificant. Data were evaluated using the BIAevaluation 4.1 software. The association and dissociation data were modeled with the BIAevaluation 4.1 software (Pharmacia Biosensor AB). Following subtraction of data from the control flow cell, the binding data produced for the various protein concentrations were fitted simultaneously, assuming the 1:1 Langmuir model. The equilibrium constant for the fibronectin+benzamidine experiment was calculated using steady-state kinetics.
(§4) To examine the binding properties of SlpA to the extracellular matrix proteins fibronectin, laminin, fibrinogen and collagen in detail, surface plasmon resonance was used. […] The association and dissociation rate constants were estimated from the binding data at different concentrations using the BIAevaluation software and from these values the binding constant was calculated (Table 2). […] In addition, the interaction between SlpA and the ECN components fibrinogen and collagen was studied.

[3] = target: T1, Laminin (basement membrane of Engelbreth-Holm-Swarm mouse sarcoma) (Mus musculus, UniProt P02468+P02469+P19137); assay: Surface plasmon resonance (BIAcore 3000), immobilized SlpA binding to laminin
T1 construct: Laminin (basement membrane of Engelbreth-Holm-Swarm mouse sarcoma); purchased Sigma; host or cells: Engelbreth-Holm-Swarm mouse sarcoma basement membrane
Protocol: as §3, §4

[4] = target: T2, Collagen (human placenta Type IV) (Homo sapiens, UniProt P02462+P08572); assay: Surface plasmon resonance (BIAcore 3000), immobilized SlpA binding to collagen
T2 construct: purchased Sigma; host or cells: human placenta
Protocol: as §3, §4

[5] = target: T3, Fibrinogen (human plasma) (Homo sapiens, UniProt P02671+P02675+P02679); assay: Surface plasmon resonance (BIAcore 3000), immobilized SlpA binding to fibrinogen; details: from binding constants
T3 construct: Fibrinogen (human plasma) was obtained from Calbiochem; purchased Calbiochem; host or cells: human plasma
T3 sequence (P02671 20-644 isoform P02671-2 limits assumed): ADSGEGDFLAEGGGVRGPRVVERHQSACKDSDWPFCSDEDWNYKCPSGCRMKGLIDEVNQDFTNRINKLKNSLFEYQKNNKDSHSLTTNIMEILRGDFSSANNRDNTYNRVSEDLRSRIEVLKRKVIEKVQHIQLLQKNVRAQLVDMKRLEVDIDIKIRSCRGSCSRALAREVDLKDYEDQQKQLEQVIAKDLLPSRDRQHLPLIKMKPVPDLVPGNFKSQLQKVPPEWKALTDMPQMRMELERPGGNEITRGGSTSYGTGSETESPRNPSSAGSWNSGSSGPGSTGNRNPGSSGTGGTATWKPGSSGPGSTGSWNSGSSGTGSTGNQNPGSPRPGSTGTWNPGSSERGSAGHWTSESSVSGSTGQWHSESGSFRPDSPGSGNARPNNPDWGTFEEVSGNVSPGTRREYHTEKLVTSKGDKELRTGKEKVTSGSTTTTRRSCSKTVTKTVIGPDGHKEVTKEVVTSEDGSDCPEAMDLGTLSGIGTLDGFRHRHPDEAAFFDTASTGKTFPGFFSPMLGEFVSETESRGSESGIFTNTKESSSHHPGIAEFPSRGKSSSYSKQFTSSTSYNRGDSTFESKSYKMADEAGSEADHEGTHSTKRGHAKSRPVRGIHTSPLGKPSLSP
T3 sequence (P02675 31-491): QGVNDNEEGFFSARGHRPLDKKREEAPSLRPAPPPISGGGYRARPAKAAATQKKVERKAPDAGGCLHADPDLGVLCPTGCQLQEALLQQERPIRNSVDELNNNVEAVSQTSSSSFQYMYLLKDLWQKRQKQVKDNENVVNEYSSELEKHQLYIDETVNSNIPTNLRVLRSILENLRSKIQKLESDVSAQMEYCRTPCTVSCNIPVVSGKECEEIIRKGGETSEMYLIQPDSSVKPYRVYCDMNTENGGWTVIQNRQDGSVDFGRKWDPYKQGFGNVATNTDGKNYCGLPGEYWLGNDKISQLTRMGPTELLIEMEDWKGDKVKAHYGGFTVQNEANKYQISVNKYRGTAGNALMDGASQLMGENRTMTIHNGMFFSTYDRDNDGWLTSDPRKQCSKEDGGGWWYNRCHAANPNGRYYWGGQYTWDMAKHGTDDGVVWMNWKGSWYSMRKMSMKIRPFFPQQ
T3 sequence (P02679 27-437 isoform P02679-2 limits assumed): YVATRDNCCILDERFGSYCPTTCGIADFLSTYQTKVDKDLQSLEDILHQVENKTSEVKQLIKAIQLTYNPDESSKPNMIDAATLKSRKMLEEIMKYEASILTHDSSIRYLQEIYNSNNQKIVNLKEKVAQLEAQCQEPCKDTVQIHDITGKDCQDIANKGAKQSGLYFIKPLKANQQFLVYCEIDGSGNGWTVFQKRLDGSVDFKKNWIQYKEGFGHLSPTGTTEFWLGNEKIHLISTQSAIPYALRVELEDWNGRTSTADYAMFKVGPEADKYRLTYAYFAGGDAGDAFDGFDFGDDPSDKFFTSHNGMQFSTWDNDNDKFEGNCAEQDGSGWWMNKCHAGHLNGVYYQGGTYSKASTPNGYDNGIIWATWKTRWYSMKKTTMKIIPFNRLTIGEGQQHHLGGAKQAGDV
Protocol: The interaction between SlpA and extracellular matrix components was evaluated by surface plasmon resonance on a BIAcore 3000 instrument. Purified SlpA protein in 5M LiCl was dialyzed against double-distilled water overnight. Monomeric and/or oligomeric protein was separated from self-assembled material by centrifugation at 20,000×g for 20 min. SlpA protein (50 ug/ml in 10 mM Sodium Phosphate pH 7.4) was covalently coupled to CM5 carboxylated dextran chips using N-hydroxysuccinimide (NHS) chemistry. Uncoupled NHS-ester groups were blocked with 1M Ethanolamine, resulting in the coupling of about 1700 resonance units (RU's) to the chip. […] Binding was determined experimentally by comparing the number of RU's observed as a function of time to an activated and blocked flow cell containing no linked protein. […] Data were evaluated using the BIAevaluation 4.1 software. […] The equilibrium constant for the fibronectin+benzamidine experiment was calculated using steady-state kinetics.
To examine the binding properties of SlpA to the extracellular matrix proteins fibronectin, laminin, fibrinogen and collagen in detail, surface plasmon resonance was used. […] The association and dissociation rate constants were estimated from the binding data at different concentrations using the BIAevaluation software and from these values the binding constant was calculated (Table 2). […]

[6] = peptide 0.12 to 125 μg/ml, 2 hour incubation
[7] = fibronectin to immobilized SlpA

T2 sequence (P02462 173-1669): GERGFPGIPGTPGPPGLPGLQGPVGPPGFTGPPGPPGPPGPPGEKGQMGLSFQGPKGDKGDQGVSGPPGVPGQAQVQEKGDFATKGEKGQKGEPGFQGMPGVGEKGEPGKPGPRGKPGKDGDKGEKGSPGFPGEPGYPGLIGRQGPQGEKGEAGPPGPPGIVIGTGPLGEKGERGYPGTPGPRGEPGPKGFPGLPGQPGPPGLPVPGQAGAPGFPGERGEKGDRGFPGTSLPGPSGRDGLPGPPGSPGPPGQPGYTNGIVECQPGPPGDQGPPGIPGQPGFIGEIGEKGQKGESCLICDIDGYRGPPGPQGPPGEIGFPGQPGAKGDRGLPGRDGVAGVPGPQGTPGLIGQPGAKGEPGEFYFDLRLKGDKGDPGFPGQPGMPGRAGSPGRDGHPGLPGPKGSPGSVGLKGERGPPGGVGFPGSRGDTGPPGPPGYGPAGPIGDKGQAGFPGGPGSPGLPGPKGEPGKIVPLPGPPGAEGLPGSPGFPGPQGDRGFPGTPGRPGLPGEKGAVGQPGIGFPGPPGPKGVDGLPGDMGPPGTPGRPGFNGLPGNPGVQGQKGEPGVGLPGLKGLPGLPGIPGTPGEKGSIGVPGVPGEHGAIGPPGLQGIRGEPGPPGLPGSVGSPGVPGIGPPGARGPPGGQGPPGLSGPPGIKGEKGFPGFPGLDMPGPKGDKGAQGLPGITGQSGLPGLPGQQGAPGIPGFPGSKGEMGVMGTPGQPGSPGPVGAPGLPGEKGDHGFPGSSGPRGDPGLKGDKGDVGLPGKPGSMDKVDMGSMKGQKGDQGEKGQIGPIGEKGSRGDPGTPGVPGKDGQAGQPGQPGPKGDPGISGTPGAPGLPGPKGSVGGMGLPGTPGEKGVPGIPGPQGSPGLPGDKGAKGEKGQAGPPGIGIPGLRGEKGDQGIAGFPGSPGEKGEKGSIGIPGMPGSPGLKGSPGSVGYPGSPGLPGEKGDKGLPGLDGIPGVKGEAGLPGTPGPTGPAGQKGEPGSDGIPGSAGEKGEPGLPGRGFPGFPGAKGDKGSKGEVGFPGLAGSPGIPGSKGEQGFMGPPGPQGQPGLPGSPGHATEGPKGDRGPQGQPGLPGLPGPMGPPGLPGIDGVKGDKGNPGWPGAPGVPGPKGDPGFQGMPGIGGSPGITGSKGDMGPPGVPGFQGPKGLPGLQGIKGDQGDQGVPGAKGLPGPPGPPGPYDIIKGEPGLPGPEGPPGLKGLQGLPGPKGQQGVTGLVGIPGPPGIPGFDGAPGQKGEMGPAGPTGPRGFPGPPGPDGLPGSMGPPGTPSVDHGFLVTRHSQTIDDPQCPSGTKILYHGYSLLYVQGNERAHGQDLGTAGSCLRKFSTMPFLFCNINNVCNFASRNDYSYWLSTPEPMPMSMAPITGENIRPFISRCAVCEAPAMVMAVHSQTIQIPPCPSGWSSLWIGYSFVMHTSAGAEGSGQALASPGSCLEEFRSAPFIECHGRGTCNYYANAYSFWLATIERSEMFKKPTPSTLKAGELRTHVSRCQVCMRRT
T2 sequence (P08572 184-1712): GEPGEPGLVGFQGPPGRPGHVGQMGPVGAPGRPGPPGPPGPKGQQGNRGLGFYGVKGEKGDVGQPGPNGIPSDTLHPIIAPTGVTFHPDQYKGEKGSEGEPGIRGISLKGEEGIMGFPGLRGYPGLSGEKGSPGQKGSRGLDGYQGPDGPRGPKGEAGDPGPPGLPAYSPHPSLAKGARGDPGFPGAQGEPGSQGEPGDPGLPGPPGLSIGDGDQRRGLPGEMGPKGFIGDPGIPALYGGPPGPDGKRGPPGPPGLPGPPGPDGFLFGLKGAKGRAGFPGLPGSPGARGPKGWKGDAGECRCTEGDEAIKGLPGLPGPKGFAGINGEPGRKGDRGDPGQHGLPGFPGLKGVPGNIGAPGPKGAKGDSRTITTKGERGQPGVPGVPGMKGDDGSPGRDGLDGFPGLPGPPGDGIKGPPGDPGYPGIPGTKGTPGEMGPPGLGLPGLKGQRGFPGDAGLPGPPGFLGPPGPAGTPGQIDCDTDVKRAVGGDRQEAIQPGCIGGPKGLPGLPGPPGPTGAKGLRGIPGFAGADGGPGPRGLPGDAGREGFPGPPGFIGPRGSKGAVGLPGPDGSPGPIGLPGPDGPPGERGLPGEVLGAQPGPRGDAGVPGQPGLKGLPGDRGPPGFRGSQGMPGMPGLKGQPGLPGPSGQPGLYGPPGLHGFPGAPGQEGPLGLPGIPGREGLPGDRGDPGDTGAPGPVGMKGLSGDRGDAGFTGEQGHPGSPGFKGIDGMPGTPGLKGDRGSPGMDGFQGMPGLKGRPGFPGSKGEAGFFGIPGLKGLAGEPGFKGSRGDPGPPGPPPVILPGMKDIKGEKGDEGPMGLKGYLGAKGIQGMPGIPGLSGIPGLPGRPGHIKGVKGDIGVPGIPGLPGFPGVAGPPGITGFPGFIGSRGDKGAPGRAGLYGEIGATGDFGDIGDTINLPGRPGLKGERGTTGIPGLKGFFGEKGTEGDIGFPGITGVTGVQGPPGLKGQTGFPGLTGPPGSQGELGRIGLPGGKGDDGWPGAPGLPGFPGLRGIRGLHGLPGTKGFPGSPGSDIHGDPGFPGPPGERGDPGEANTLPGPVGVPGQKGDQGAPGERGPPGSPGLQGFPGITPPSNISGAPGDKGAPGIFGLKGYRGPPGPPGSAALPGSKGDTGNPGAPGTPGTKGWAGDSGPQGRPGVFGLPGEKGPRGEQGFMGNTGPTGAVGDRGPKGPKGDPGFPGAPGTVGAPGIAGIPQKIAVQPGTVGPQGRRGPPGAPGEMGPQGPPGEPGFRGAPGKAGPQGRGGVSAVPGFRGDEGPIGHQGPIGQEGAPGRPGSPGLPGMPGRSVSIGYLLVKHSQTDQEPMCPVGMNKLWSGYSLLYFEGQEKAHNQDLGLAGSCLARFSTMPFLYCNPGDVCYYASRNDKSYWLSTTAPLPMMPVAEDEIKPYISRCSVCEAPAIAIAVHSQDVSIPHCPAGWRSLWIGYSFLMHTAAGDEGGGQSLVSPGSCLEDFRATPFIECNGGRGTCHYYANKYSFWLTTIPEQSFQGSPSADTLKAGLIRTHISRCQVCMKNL

TNFα [reference compound] was tested, and the “IL-8 secretion increase relative to the control” value ([1]; TNFα 100 ng/ml alone) was roughly 10 fold.

B1: HD-5α: human α-defensin 5, chemically synthesized and folded, three intra-molecular disulfide bonds (peptide, UniProt Q01523 20-94, looked up)
Defensin alpha 5: ESLQERADEATTQKQSGEDNQDLAISFAGNGLSALRTSGSQARATCYCRTGRCATRESLSGVCEISGRLYRLCCR
modifications: Defensin-5
notes: human α-defensin 5, chemically synthesized and folded, three intra-molecular disulfide bonds
B1 was tested, and the “antibacterial activity against E. coli at highest salt concentration” value (E. coli ATCC 25922; peptide 100 ug/ml, 100 mM sodium chloride) was “almost completely inhibited”, the “antimicrobial activity (killing) against E. coli” value (E. coli ATCC 25922; [6]) was “efficiently killed” and the “antibacterial activity against S. aureus at highest salt concentration” value (S. aureus ATCC 29213; peptide 50 ug/ml, 100 mM sodium chloride) was “still significantly toxic”. The “antimicrobial activity (killing) against S. aureus” value (S. aureus ATCC 29213; [6]) was “efficiently killed”, the “IL-8 levels increase compared to control cells” value ([1]; peptide 100 ug/ml, serum-free medium) was roughly 10 fold and the “induction of IL-8 secretion” value ([1]; peptide 50 and 100 ug/ml) was “dose-dependent”.

B2: SlpA: Surface layer (S-layer) protein purified from Lactobacillus brevis ATCC 8287 by 5M LiCl extraction and gel filtration (protein)
chain: KSYATAGAYSTLKTDAATRNVEATGTNALYTKPGTVKGAKVVASKATMAKLASSKKSADYFRAYGVKTTNRGSVYYRVVTMDGKYRGYVYGGKSDTAFAGGIKSAETTTKADMPARTTGFYLTDTSKNTLWTAPKYTQYKASKVSLYGVAKDTKFTVDQAATKTREGSLYYHVTATNGSGISGWIYAGKGFSTTATGTQVLGGLSTDKSVTATNDNSVKIVYRTTDGTQVGSNTWVTSTDGTKAGSKVSDKAADQTALEAYINANKPSGYTVTNPNAADATYGNTVYATVSQAATSKVALKVSGTPVTTALTTADANDKVAANDTTANGSSVAGSTVYAAGTKLAQLTTDLTGEKGQVVTLTAIDTDLEDATFTGTTTYYSDLGKAYHYTYTYNKDSAASSNASTQFGSNVTGTLTATLVMGKSTATANGTTWFN
For B2, the Kd ([2]; fibronectin + benzamidine (SlpA preincubated with 1 mM benzamidine), steady-state kinetics) was 30.1 µM, the “ka × 10^3” value [2, 7] was 7.04 × 10^3 and the “kd × 10^−3 (s^−1)” value [2, 7] was 6.32 × 10^−3 s^−1. For the same molecule, the Kd ([2]; fibronectin to immobilized SlpA, 25° C., 1:1 Langmuir model) was 0.0899 µM and 0.0898 µM, the “affinity of SlpA to bind laminin compared with fibronectin” value ([3]; from calculated Kd values) was “three-fold higher affinity” and the “ka × 10^3” value ([3]; laminin + benzamidine (1 mM)) was 3.03 × 10^3. The “kd × 10^−3 (s^−1)” value ([3]; laminin + benzamidine (1 mM)) was 2 × 10^−3 s^−1, the “ka × 10^3” value ([3]; laminin to immobilized SlpA) was 4.89 × 10^3 and the “kd × 10^−3 (s^−1)” value ([3]; laminin to immobilized SlpA) was 1.3 × 10^−3 s^−1. The Kd ([4]; collagen to immobilized SlpA) was 31.8 µM, the “ka × 10^3” value ([4]; collagen to immobilized SlpA) was 3.47 × 10^3 and the “kd × 10^−3 (s^−1)” value ([4]; collagen to immobilized SlpA) was 1.1 × 10^−3 s^−1. For the same molecule, the “binding affinity for collagen compared with affinity for fibronectin and laminin” value ([4]; from binding constants) was “three orders of magnitude less” and the “binding affinity for fibrinogen compared with affinity for fibronectin and laminin” value [5] was “three orders of magnitude less”.
